± gives the standard error. Fewer inactive variants are shown than the library holds.
B1: glmS ribozyme (parent)
chain: AUAAAAGCGCCAGAACUACAGAAAUGUAGUUGACGAGGAGGAGGUUUAUCGAAUUUUCGGCGGAUGCCUCCAAA

Columns and labels:
Conditions in all cases: with glucosamine-6-phosphate
glucosamine-6-phosphate [1] = variants of: B1; test: self-cleavage kobs at 40 uM GlcN6P; higher = faster cleavage; RNA array
Procedure, shortened: (§1)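 Barcoded ribozyme variants, transcribed in situ by E. coli RNA polymerase on sequenced MiSeq chips, were followed via a hybridised Cy3 probe at 37 °C. Glucosamine-6-phosphate ranged from 40 μM to 10 mM in HEPES/KCl/Mg(OAc)2 buffer. kobs came from decay fits to per-tile medians, and kcat and KM from weighted Michaelis–Menten fits.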

glucosamine-6-phosphate [2] = variants of: B1; test: self-cleavage kobs at 640 uM GlcN6P; higher = faster cleavage; RNA array
Procedure, shortened: as §1

glucosamine-6-phosphate [3] = variants of: B1; test: self-cleavage kobs at 10000 uM GlcN6P; higher = faster cleavage; RNA array
Procedure, shortened: as §1

glucosamine-6-phosphate [4] = variants of: B1; test: self-cleavage kobs at 160 uM GlcN6P; higher = faster cleavage; RNA array
Procedure, shortened: as §1

glucosamine-6-phosphate [5] = variants of: B1; test: self-cleavage kobs at 2500 uM GlcN6P; higher = faster cleavage; RNA array
Procedure, shortened: as §1

Variant | self-cleavage kobs at 40 uM GlcN6P (glucosamine-6-phosphate [1]) [s⁻¹] | self-cleavage kobs at 640 uM GlcN6P (glucosamine-6-phosphate [2]) [s⁻¹] | self-cleavage kobs at 10000 uM GlcN6P (glucosamine-6-phosphate [3]) [s⁻¹] | self-cleavage kobs at 160 uM GlcN6P (glucosamine-6-phosphate [4]) [s⁻¹] | self-cleavage kobs at 2500 uM GlcN6P (glucosamine-6-phosphate [5]) [s⁻¹]
AUAAAAGCGCCAGAACUACAGAAAUGUAGUUCACGAGGAGGAGGGUUAUCGAAUUUUCGGCGGAAGCCUCCAAA [G32C U45G U65A] | < 1e-05 | < 1e-05 | < 1e-05 |  | 
AUAAAAGCGCCAGAACUACAGAAAUGUAGUGGACUAGGAGGAGGUUUAUCGAAUUUUCGGCGGAUGCCUCCAAA [U31G G35U] | < 1e-05 | < 1e-05 | < 1e-05 | < 1e-05 | < 1e-05
AUAAAAGCGCCAGAACUACAGAAAUGUAGUUCACGACGAGGAGGUUUAUCGAAUUUUUGGCGGAUGCCUCCAAA [G32C G37C C58U] | < 1e-05 |  |  |  | 
AUAAAAGCGCCAGAACUACAGAAAUGUAGUUCACGACGAGGAGGUUUUUCGAAUUUUCCGCGGAUGCCUCCAAA [G32C G37C A48U G59C] | < 1e-05 |  |  |  | 
AUAAAAGCGCCAGAACUACAGAAAUGUAGUUAACGAGGAUGAGGUUUAUCGAAUUUUCGGCGGAUGGCUCCAAA [G32A G40U C67G] | < 1e-05 | < 1e-05 |  |  | < 1e-05
AUAAAAGCGCCAGAACUACAGAAAUGUAGUCGACGAGGAGGAGAUUUAUCGAAUUUUCGGCGGAUGCCUCCAAA [U31C G44A] | < 1e-05 |  |  | < 1e-05 | 
AUAAAAGCGCCAGAACUACAGAAAUGUAGUGGACGAGGAGGAGGUUCAUCGAAUUUUCGGCGGAUGCCUCCAAA [U31G U47C] | 2.84e-05 ± 1.3e-05 | 0.000197 ± 4.8e-05 |  |  | 0.000501 ± 0.00015
AUAAAAGCGCCAGAACUACAGAAAUGUAGUUCACGGGGAGGAGGUUUAUCGAAUUUUCGGUGGAUGCCACCAAA [G32C A36G C61U U69A] | < 1e-05 |  |  |  | 
AUAAAAGCGCCAGAACUACAGAAAUGUAGUGGACGAGGAGGAGGUUUAUCGAAUUUUCGGCGGAUGCCACCAAA [U31G U69A] | 2.79e-05 ± 1.1e-05 | 0.00012 ± 3.2e-05 | 0.000103 ± 1.4e-05 | 9.26e-05 ± 3.7e-05 | 0.000288 ± 7.4e-05
AUAAAAGCGCCAGAACUACAGAAAUGUAGUUCACGAGGAGGAGGCUUAUCGAAUUUUCGGCGGAUGCCACCAAA [G32C U45C U69A] | < 1e-05 |  |  |  | 
AUAAAAGCGCCAGAACUACAGAAAUGUAGUGGAUGAGGAGGAGGUUUAUCGAAUUUUCAGCGGAUGCCUCCAAA [U31G C34U G59A] | < 1e-05 | < 1e-05 | < 1e-05 |  | < 1e-05
AUAAAAGCGCCAGAACUACAGAAAUGUAGUCGACGAGGAGGAGGUUUAUCGAAUUUUCGUCGGAUGCCUCCAAA [U31C G60U] | < 1e-05 |  | < 1e-05 | < 1e-05 | 
AUAAAAGCGCCAGAACUACAGAAAUGUAGUUAACGAGGAGGACGUUUAUCGAAUUUUCGGCGGAUGCCUCCAAA [G32A G43C] | < 1e-05 |  |  | < 1e-05 | < 1e-05
AUAAAAGCGCCAGAACUACAGAAAUGUAGUUCACGAGGAGGAGGUUUAUCGAUUUUUCGGCGGAUUCCUCCAAA [G32C A53U G66U] | < 1e-05 |  |  |  | 

Source: the supplement of paper PMC7125110
